We go through one molecule from publication PMC7755605, “The Interaction of TRAF6 With Neuroplastin Promotes Spinogenesis During Early Neuronal Development” (Frontiers in Cell and Developmental Biology, 2020).

The experiment addresses T1, N-terminally GST-tagged TRAF6 (mouse, UniProt P70196 1-530).
T1 construct: TNF receptor-associated factor 6 (TRAF6), mouse; amplified by PCR with primers from the start codon to the stop codon; 530 residues by the printed limits of the cc-c construct; also called GST-TRAF6; purified recombinant TRAF6; source: E. coli BL21 (DE3), purified (GST bulk kit); not shown: GST, N-terminal, kept
T1 sequence (looked up): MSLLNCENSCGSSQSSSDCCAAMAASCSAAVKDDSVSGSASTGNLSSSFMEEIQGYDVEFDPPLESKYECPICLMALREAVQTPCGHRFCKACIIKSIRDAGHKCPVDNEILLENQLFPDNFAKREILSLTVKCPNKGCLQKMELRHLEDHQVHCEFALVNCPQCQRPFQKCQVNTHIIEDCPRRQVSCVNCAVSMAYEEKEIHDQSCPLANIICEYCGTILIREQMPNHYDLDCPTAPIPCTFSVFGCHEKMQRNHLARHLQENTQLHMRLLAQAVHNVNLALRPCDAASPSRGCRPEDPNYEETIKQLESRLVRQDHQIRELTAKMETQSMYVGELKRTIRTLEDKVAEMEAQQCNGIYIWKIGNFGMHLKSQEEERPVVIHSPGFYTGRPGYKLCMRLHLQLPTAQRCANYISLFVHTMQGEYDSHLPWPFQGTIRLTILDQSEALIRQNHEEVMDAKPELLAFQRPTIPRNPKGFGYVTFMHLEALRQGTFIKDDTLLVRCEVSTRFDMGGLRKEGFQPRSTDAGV
Put plainly: SPR; BIACORE X100, single cycle kinetics; GST-TRAF6 amine-coupled on a CM5 chip, GST-coated sensor as reference; neuroplastin peptide injected at 2.5, 5, 100, 200 and 400 uM; HBS-P buffer. Particulars: both partners purified. On the technique in general: Surface plasmon resonance follows binding to a sensor surface in real time, without labels.

B1: neuroplastin intracellular peptide containing the TRAF6 binding motif (peptide)
chain: EKRKRPDEVPDAGPMKTNSTNNHKDKNLRQRNTN
modifications: Peptide limits are not printed (possibly in the figure or supplement). The whole cytoplasmic tail is taken by convention from the UniProt topology; it should contain the printed motif RKRPDEVPD. …
The Kd is the constant that tells how readily two partners part at equilibrium. High values mean lower affinity, low ones higher affinity. In general, stoichiometry N refers to the number of molecules, sites or subunits per partner or assembly. Turning to B1, the Kd came out at 88 µM and the “stoichiometry N” value worked out at 1.
